According to the supplement of paper PMC10567573:

B1: TRIM43 (parent)
chain: NNSWIRKNSTMVNSEDIFLLLCLK

Variants of: B1
Assay: protein stability index of a GFP-peptide fusion (GPS, HEK-293T) (PSI 1-6); higher = more stable
Conditions: c terminus: a fixed tail appended
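Note: lentivirally expressed fusions sorted by FACS into six bins by GFP to DsRed ratio, PSI derived from sequencing read proportions per bin multiplied by bin number.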

In order of falling protein stability index:
1. NNSWIRKNWTMVNSEDIFLLLCLK [S9W]  4.39
2. NNSWWRKNSTMVNSEDIFLLLCLK [I5W]  4.27
3. NNSYIRKNSTMVNSEDIFLLLCLK [W4Y]  3.95
4. NNSWIRKNYTMVNSEDIFLLLCLK [S9Y]  3.67
5. NNSWIRKNSTMVNSEDEFLLLCLK [I17E]  3.62
6. NNSWIRKNSTMVNSEDIFLLLCLR [K24R]  3.57
7. NGSWIRKNSTMVNSEDIFLLLCLK [N2G]  3.56
8. NFSWIRKNSTMVNSEDIFLLLCLK [N2F]  3.5
9. NNCWIRKNSTMVNSEDIFLLLCLK [S3C]  3.41
10. NNMWIRKNSTMVNSEDIFLLLCLK [S3M]  3.38
11. NNSRIRKNSTMVNSEDIFLLLCLK [W4R]  3.35
12. NNSWIRKNSSMVNSEDIFLLLCLK [T10S]  3.33
13. NNSWIRKNSHMVNSEDIFLLLCLK [T10H]  3.31
14. NNSSIRKNSTMVNSEDIFLLLCLK [W4S]  3.31
15. NNSWIRKNSKMVNSEDIFLLLCLK [T10K]  3.25
16. NMSWIRKNSTMVNSEDIFLLLCLK [N2M]  3.25
17. NNSWERKNSTMVNSEDIFLLLCLK [I5E]  3.23
18. NNSWIRKNSYMVNSEDIFLLLCLK [T10Y]  3.22
19. NNSWIRKNSTMVNAEDIFLLLCLK [S14A]  3.2
20. NNSWIRKNLTMVNSEDIFLLLCLK [S9L]  3.2
21. NNSWIRKNSTMVGSEDIFLLLCLK [N13G]  3.19
22. NNSWIRKNSTMVNSEDCFLLLCLK [I17C]  3.18
23. NNSWIRKNSTMVNSEDIFLLLCLY [K24Y]  3.18
24. NNSWIRKNSTMVNSEDIFLLLCLA [K24A]  3.16
25. NNSWIRKNSTMVNSEDLFLLLCLK [I17L]  3.15
26. NNSWIRKNSTMVQSEDIFLLLCLK [N13Q]  3.14
27. NNSWIRKNSTMVNSEDIFLLLCLM [K24M]  3.1
28. NNSWIRKNSTMVNSEDIFLLLCLQ [K24Q]  3.08
29. NNSWQRKNSTMVNSEDIFLLLCLK [I5Q]  3.02
30. NNSWIRKNSTMVNSEDIFLLLVLK [C22V]  2.96
31. NNSWIRKNSTMVSSEDIFLLLCLK [N13S]  2.96
32. NNSWIRSNSTMVNSEDIFLLLCLK [K7S]  2.95
33. NNSFIRKNSTMVNSEDIFLLLCLK [W4F]  2.91
34. NNSWIRYNSTMVNSEDIFLLLCLK [K7Y]  2.9
35. NCSWIRKNSTMVNSEDIFLLLCLK [N2C]  2.89
36. NNSWIRKNSTMVNSEDIFLLLCLN [K24N]  2.86
37. NNSWIRKNSTMVNSEDYFLLLCLK [I17Y]  2.83
38. NNSWCRKNSTMVNSEDIFLLLCLK [I5C]  2.8
39. NNSWIRKNSTMVNSEDIFLLLCLC [K24C]  2.79
40. NNSWIRKNSTMVNDEDIFLLLCLK [S14D]  2.77
41. NNSWIRHNSTMVNSEDIFLLLCLK [K7H]  2.76
42. NNSWIRKNSCMVNSEDIFLLLCLK [T10C]  2.73
43. NNSWIRKNSTMVNSEDIFLLLSLK [C22S]  2.72
44. NNSWIRKNSTMVVSEDIFLLLCLK [N13V]  2.72
45. NNSWIRKNSTMVNSEDIFLLLCLL [K24L]  2.72
46. NNSWIRINSTMVNSEDIFLLLCLK [K7I]  2.71
47. NNSWIRKNSTMVNSEDRFLLLCLK [I17R]  2.7
48. NNSWIRKNSTMVFSEDIFLLLCLK [N13F]  2.69
49. NNSWIRKNSTMVNSEDIFLLLWLK [C22W]  2.66
50. NNSWIRKNGTMVNSEDIFLLLCLK [S9G]  2.66
51. NWSWIRKNSTMVNSEDIFLLLCLK [N2W]  2.65
52. NNHWIRKNSTMVNSEDIFLLLCLK [S3H]  2.64
53. NNSQIRKNSTMVNSEDIFLLLCLK [W4Q]  2.62
54. NNSWIRKNSTMVNSEDIFLLLHLK [C22H]  2.62
55. NNSWIRKNSTMVNSEDKFLLLCLK [I17K]  2.62
56. NNSWIRKNSTMVNIEDIFLLLCLK [S14I]  2.62
57. NNSWIRKNRTMVNSEDIFLLLCLK [S9R]  2.62
58. NNSWIRKNSTMVNSEDIFLLLMLK [C22M]  2.61
59. NNSWDRKNSTMVNSEDIFLLLCLK [I5D]  2.61
60. NNSMIRKNSTMVNSEDIFLLLCLK [W4M]  2.59
61. NNSWIRKNSLMVNSEDIFLLLCLK [T10L]  2.55
62. NNSWIRKNKTMVNSEDIFLLLCLK [S9K]  2.54
63. NNSWIRKNSTFVNSEDIFLLLCLK [M11F]  2.54
64. NNVWIRKNSTMVNSEDIFLLLCLK [S3V]  2.53
65. NNKWIRKNSTMVNSEDIFLLLCLK [S3K]  2.5
66. NNSWIRKNSTMVESEDIFLLLCLK [N13E]  2.47
67. NNSWIRKNSTMVNSEDTFLLLCLK [I17T]  2.42
68. NNPWIRKNSTMVNSEDIFLLLCLK [S3P]  2.4
69. NNSWIRKNSTMVISEDIFLLLCLK [N13I]  2.37
70. NNSWIRKNSTMVNKEDIFLLLCLK [S14K]  2.36
71. NNSWIRKNSTMVNSEDIFLLLELK [C22E]  2.33
72. NISWIRKNSTMVNSEDIFLLLCLK [N2I]  2.32
73. NNSWIRKNSTMVNSEDIFLLLGLK [C22G]  2.32
74. NNSWIRNNSTMVNSEDIFLLLCLK [K7N]  2.32
75. NNSWIRKNSTMVNLEDIFLLLCLK [S14L]  2.31
76. NNSWIRKNSTMVNSEDIFLLLCLW [K24W]  2.28
77. NNSWIRKNSTMVNSEDMFLLLCLK [I17M]  2.26
78. NPSWIRKNSTMVNSEDIFLLLCLK [N2P]  2.24
79. NNSWIRKNSTMVNSEDFFLLLCLK [I17F]  2.21
80. NNSWIRKNSTMVNSEDIFLLLTLK [C22T]  2.19
81. NNSWIRKNVTMVNSEDIFLLLCLK [S9V]  2.19
82. NNSWIRKNSTMVNSEDWFLLLCLK [I17W]  2.16
83. NNSWIRTNSTMVNSEDIFLLLCLK [K7T]  2.16
84. NTSWIRKNSTMVNSEDIFLLLCLK [N2T]  2.14
85. NNSWIRKNSTMVNHEDIFLLLCLK [S14H]  2.12
86. NNSWIRKNSTMVNSEDGFLLLCLK [I17G]  2.04
87. NNSWIRKNFTMVNSEDIFLLLCLK [S9F]  2.03
88. NNSIIRKNSTMVNSEDIFLLLCLK [W4I]  1.99
89. NNFWIRKNSTMVNSEDIFLLLCLK [S3F]  1.95
90. NNSWIRKNSVMVNSEDIFLLLCLK [T10V]  1.95
91. NNSWIRKNSTMVTSEDIFLLLCLK [N13T]  1.95
92. NNSWIRKNSTMVNSEDIFLLLDLK [C22D]  1.94
93. NNSWIRKNSTMVNSEDIFLLLRLK [C22R]  1.91
94. NNSAIRKNSTMVNSEDIFLLLCLK [W4A]  1.55
